Laboratory results reported in article PMC9135449.

Molecular target: T1, HP1043 (Helicobacter pylori 26695?) (UniProt O25684)
T1 sequence: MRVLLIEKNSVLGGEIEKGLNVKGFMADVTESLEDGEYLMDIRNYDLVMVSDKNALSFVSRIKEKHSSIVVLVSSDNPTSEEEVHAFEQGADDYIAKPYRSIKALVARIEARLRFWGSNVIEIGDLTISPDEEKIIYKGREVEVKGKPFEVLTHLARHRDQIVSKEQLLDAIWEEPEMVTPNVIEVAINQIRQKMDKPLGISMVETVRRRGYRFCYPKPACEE
Assay: EMSA
Conditions: 10 mM Tris-HCl pH 7.5, 40 mM KCl, 100 ug/ml BSA, 1 mM DTT, 5% glycerol, 25 ul, room temperature 30 min; 6% native PAGE in 45 mM Tris/45 mM orthoboric acid …

**Q.** With “GCCAAAACGCCTAAAGCCACAATAACCTTTTTCATCGTTTGTCTCCTCTACTTATCAAAATGATCTTAAAATGATACAATTACAAGTTTAAGTTTTGCTTAAAAAATGAAGTGAAAATAAGAGAAATAAATATGATTTTATACATTCATATCCCCTTTTGTGAAAATAAATGCGGTTATTGCGCTTTCAA (double strand) [Php1227 190-bp promoter probe]” as the sequence, how does the binding read?
**A.** binds
